According to patent US20090117096A1 (Scripps Research, published 2009):

What was measured:
integrin αvβ1 = molecular target: T1, integrin αvβ1 (human, UniProt P06756 31-1048; P05556 21-798); assay: flow cytometry on human tumor cell panel (summary statement)
T1 construct: whole, on cells

integrin αvβ5 = molecular target: T2, integrin αvβ5 (human, UniProt P06756 31-1048; P18084 24-799); assay: as above
T2 construct: whole, on cells

integrin α5β1 = molecular target: T3, integrin α5β1 (human, UniProt P08648 42-1049; P05556 21-798); assay: flow cytometry on human tumor cell panel (FIG. 1)
T3 construct: whole, on cells
T3 sequence (P08648 42-1049, chain 1 of 2): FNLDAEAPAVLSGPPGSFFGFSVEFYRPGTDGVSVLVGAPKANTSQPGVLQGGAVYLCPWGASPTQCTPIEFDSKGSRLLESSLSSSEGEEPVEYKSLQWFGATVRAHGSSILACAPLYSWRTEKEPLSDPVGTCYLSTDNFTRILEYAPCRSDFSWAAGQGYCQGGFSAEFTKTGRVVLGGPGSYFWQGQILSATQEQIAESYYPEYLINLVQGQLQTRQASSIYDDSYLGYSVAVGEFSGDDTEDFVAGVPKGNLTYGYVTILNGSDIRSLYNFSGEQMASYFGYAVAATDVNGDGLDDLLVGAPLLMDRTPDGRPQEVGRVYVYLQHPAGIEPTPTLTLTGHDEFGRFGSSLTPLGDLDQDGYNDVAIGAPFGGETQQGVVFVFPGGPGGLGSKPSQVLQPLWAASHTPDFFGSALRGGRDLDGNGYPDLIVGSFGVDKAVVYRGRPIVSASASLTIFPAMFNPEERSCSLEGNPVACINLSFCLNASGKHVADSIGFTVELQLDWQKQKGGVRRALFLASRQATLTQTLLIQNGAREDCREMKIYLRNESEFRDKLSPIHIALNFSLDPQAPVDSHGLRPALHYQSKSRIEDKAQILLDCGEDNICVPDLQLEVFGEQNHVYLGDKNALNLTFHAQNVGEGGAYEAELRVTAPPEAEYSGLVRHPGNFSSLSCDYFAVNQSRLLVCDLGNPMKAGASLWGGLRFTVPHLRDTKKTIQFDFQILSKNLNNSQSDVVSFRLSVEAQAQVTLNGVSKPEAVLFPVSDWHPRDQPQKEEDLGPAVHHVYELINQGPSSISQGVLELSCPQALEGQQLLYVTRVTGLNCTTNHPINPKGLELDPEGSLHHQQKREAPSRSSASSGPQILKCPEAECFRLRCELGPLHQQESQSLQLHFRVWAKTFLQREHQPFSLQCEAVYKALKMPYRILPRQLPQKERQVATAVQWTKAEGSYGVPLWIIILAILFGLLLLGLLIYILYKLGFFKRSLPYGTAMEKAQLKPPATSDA
T3 sequence (P05556 21-798, chain 2 of 2): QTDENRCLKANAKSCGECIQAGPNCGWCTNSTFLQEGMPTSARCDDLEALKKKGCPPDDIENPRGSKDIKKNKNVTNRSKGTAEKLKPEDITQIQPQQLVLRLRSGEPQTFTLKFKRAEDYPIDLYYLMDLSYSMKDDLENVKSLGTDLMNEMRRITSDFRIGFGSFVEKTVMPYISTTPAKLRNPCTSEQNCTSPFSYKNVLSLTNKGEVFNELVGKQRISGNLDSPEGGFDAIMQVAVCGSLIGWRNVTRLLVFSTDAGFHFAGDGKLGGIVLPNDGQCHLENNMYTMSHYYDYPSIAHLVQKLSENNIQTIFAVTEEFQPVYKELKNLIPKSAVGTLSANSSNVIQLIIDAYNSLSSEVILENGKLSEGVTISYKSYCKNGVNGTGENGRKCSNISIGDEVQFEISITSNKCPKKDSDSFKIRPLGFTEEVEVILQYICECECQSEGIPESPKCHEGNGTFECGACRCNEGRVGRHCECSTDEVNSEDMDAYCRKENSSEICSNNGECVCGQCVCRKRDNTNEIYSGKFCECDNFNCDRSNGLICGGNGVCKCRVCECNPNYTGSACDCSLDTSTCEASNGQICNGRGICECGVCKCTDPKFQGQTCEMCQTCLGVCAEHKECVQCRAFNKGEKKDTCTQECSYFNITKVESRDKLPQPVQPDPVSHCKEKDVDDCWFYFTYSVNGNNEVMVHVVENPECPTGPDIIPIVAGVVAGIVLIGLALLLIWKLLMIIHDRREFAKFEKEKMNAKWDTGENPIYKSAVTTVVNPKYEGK
Description: Flow cytometry. scFv binding to human tumor cells was analyzed by flow cytometry, initially with cloned scFv phage and then with purified scFv protein. […] Binding/washing buffer was TBS with or without divalent cations (1 mM Ca²⁺, 1 mM Mg²⁺, 0.2 mM Mn²⁺). […] All samples were counter stained with propidium iodide (PI) and analyzed on a Becton-Dickinson FACScan, with live gate set to exclude PI positive cells.

Measured: binding result

T1 sequence (P06756 31-1048, chain 1 of 2): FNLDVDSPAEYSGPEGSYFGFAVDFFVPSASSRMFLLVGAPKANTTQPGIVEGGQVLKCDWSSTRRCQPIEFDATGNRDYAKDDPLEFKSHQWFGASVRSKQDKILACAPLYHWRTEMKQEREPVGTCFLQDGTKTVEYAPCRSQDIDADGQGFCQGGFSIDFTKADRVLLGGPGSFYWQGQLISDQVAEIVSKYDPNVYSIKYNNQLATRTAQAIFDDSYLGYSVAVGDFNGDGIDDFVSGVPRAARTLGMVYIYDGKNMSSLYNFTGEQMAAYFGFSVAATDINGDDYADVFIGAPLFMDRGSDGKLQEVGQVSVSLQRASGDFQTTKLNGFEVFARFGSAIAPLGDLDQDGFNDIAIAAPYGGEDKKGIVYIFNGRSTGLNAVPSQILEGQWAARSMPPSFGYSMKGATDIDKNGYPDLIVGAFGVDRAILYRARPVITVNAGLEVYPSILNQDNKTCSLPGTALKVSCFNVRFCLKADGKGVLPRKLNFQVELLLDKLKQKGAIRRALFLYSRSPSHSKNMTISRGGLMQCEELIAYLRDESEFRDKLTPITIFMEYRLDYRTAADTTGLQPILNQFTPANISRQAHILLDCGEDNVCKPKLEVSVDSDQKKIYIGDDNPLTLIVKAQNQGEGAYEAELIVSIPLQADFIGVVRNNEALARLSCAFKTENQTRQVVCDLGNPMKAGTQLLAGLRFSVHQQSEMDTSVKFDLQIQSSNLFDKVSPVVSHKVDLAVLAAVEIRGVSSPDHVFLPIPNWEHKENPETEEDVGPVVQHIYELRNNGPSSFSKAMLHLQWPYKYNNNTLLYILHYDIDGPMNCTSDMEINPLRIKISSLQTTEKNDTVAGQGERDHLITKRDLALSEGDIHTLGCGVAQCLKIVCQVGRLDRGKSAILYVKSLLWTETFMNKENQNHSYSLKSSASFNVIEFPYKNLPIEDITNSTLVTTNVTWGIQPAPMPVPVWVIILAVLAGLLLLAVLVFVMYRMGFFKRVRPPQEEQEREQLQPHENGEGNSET
T1 sequence (P05556 21-798, chain 2 of 2): as the sequence (P05556 21-798, chain 2 of 2) above
T2 sequence (P06756 31-1048, chain 1 of 2): as the sequence (P06756 31-1048, chain 1 of 2) above
T2 sequence (P18084 24-799, chain 2 of 2): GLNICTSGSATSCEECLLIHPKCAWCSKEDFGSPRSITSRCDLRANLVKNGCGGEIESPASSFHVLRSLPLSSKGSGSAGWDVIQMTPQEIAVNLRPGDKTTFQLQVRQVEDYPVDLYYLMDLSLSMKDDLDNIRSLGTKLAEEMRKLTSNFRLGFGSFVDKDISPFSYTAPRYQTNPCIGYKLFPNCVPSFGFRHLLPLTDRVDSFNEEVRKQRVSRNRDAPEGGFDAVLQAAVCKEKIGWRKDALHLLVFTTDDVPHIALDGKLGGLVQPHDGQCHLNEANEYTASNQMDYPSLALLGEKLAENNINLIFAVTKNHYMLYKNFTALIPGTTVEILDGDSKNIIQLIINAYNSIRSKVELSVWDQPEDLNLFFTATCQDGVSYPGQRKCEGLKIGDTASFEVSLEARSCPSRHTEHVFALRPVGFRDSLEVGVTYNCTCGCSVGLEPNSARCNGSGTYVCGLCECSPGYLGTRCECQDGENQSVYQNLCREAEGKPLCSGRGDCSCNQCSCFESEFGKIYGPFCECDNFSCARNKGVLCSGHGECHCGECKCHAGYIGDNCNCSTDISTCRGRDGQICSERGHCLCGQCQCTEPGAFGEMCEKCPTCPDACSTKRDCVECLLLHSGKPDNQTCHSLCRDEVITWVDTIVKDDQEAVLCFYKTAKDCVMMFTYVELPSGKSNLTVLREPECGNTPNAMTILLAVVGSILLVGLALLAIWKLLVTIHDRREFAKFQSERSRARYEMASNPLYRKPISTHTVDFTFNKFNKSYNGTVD

B1: scFv antibody Bc-12 (scFv)
scFv: MAQVQLVQSGAEVKKPGASVKVSCKASGYTFSNYGITWVRQAPGQGLEWMGWINNGNTHYAQKFQGRVTMTTDTSTSTAYMELRSLRSDDTAVYYCARDPRGDDEPYWGQGTLVTVSSGGGGSGGGGSGGGGSEIVLTQSPLSLPVTLGQPASISCRSSQNLVYSDGNTYLSWFQQRPGQSPRRLIYKVSNRDSGVPDRFSGSGSGTDFTLKISRVEAEDIGVYYCMQGTHWPPRTFGQGTKVEIKRGLGGLVDYKDDDDK
notes: also called scFv Bc-12
no binding: all assays above
